Measurements: doi:10.1101/199034 (bioRxiv, 2017)
One block for each molecule: values may come before it.

Experiments:
[1] = target: human KATPem (human SUR1-human Kir6.2 fusion construct) (human); assay: cryo-EM structure
[2] = target: the molecule itself; assay: cryo-EM structure

- stoichiometry N [1]: 4
Molecule: human KATPem (human SUR1-human Kir6.2 fusion construct) (complex)

B1: human Kir6.2 (natural protein, UniProt Q14654 1-390, looked up)
chain: MLSRKGIIPEEYVLTRLAEDPAKPRYRARQRRARFVSKKGNCNVAHKNIREQGRFLQDVFTTLVDLKWPHTLLIFTMSFLCSWLLFAMAWWLIAFAHGDLAPSEGTAEPCVTSIHSFSSAFLFSIEVQVTIGFGGRMVTEECPLAILILIVQNIVGLMINAIMLGCIFMKTAQAHRRAETLIFSKHAVIALRHGRLCFMLRVGDLRKSMIISATIHMQVVRKTTSPEGEVVPLHQVDIPMENGVGGNSIFLVAPLIIYHVIDANSPLYDLAPSDLHHHQDLEIIVILEGVVETTGITTQARTSYLADEILWGQRFVPIVAEEDGRYSVDYSKFGNTVKVPTPLCTARQLDEDHSLLEALTLASARGPLRKRSVPMAKAKPKFSISPDSLS
- stoichiometry N [2]: 4
